Laboratory results reported in the supplement of paper PMC6755084.

B1: F1*; a variant is named by its letters at N, in order (parent)
chain: GAGACCGCAACTGAAAAGTTGTTATCNNNNNNNNAANNNNNTTNGNNGGGTTGAAGTTCTGCACGTAGAAGCAAAAGGC

Variants of: B1
Assay: fraction ligated after 30 min (ligated reads / total reads); higher = more ligase activity
Conditions: with F1*sub RNA substrate (template-directed ligation), 42 °C
Protocol: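 Chip-synthesised pool of F1* ligase ribozyme variants (all single and double substitutions, single, double and triple deletions in the catalytic core and GAA bulge, plus designed variants) was transcribed with T7 and reacted as a pool with excess substrate F1*sub for 30 min at 42 C in 50 mM EPPS pH 8.5, 25 mM MgCl2. Ligated and unligated bands were separated by PAGE, barcoded by RT and deep sequenced; fraction ligated = ligated reads / total reads per variant, relative activity = FL / FL of wild type (0.826). Sequences are the DNA template of the ribozyme.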
GAGACCGCAACTGAAAAGTTGTTATCACTTGCGTAAGACCTTTGGATGGGTTGAAGTTCTGCACGTAGAAGCAAAAGGC [ACTTGCGTGACCTGAT] showed a fraction ligated of 0.815. GAGACCGCAACTGAAAAGTTGTTATCATTGTCGTAAACACTTTGGATGGGTTGAAGTTCTGCACGTAGAAGCAAAAGGC [ATTGTCGTACACTGAT] showed a fraction ligated of 0.799. For GAGACCGCAACTGAAAAGTTGTTATCACTTGTGTAAGACCTTTGGATGGGTTGAAGTTCTGCACGTAGAAGCAAAAGGC [ACTTGTGTGACCTGAT], the fraction ligated was 0.844. GAGACCGCAACTGAAAAGTTGTTATCACTTGTCGAAGACACTTTGATGGGTTGAAGTTCTGCACGTAGAAGCAAAAGGC [ACTTGTCGGACACTAT] showed a fraction ligated of 0.769. Variant GAGACCGCAACTGAAAAGTTGTTATCACTTGCGTAAACACTTTGGATGGGTTGAAGTTCTGCACGTAGAAGCAAAAGGC [ACTTGCGTACACTGAT] has a fraction ligated of 0.837. For GAGACCGCAACTGAAAAGTTGTTATCCTTGTCGTAAGACCTTTGGATGGGTTGAAGTTCTGCACGTAGAAGCAAAAGGC [CTTGTCGTGACCTGAT], the fraction ligated was 0.786. Work on GAGACCGCAACTGAAAAGTTGTTATCATTGTCGTAAGCACTTTGGATGGGTTGAAGTTCTGCACGTAGAAGCAAAAGGC [ATTGTCGTGCACTGAT] yielded a fraction ligated of 0.777. For GAGACCGCAACTGAAAAGTTGTTATCACTTGTGTAAGAACTTTGGATGGGTTGAAGTTCTGCACGTAGAAGCAAAAGGC [ACTTGTGTGAACTGAT], the fraction ligated was 0.867. GAGACCGCAACTGAAAAGTTGTTATCACTTGTCTAAACACTTTGGATGGGTTGAAGTTCTGCACGTAGAAGCAAAAGGC [ACTTGTCTACACTGAT] showed a fraction ligated of 0.817. With GAGACCGCAACTGAAAAGTTGTTATCCTTGTCGTAAGAACTTTGGATGGGTTGAAGTTCTGCACGTAGAAGCAAAAGGC [CTTGTCGTGAACTGAT] the fraction ligated was 0.809. Variant GAGACCGCAACTGAAAAGTTGTTATCACTTGTCGAAGACCTTTGGATGGGTTGAAGTTCTGCACGTAGAAGCAAAAGGC [ACTTGTCGGACCTGAT] has a fraction ligated of 0.801. GAGACCGCAACTGAAAAGTTGTTATCACTTGTCGAAGACACTTGGATGGGTTGAAGTTCTGCACGTAGAAGCAAAAGGC [ACTTGTCGGACACGAT] showed a fraction ligated of 0.775. Work on GAGACCGCAACTGAAAAGTTGTTATCACTTTCGTAAGACACTTTGATGGGTTGAAGTTCTGCACGTAGAAGCAAAAGGC [ACTTTCGTGACACTAT] yielded a fraction ligated of 0.793. GAGACCGCAACTGAAAAGTTGTTATCATTGTCGTAAGACACTTTGATGGGTTGAAGTTCTGCACGTAGAAGCAAAAGGC [ATTGTCGTGACACTAT] was tested, and the fraction ligated was 0.776. For GAGACCGCAACTGAAAAGTTGTTATCCTTGTCGTAAGACACTTGGATGGGTTGAAGTTCTGCACGTAGAAGCAAAAGGC [CTTGTCGTGACACGAT], the fraction ligated was 0.788. With GAGACCGCAACTGAAAAGTTGTTATCACTTGCGTAAGACACTTTGGAGGGTTGAAGTTCTGCACGTAGAAGCAAAAGGC [ACTTGCGTGACACTGA] the fraction ligated was 0.128. Work on GAGACCGCAACTGAAAAGTTGTTATCACTTGCGTAAGACACTTTGGTGGGTTGAAGTTCTGCACGTAGAAGCAAAAGGC [ACTTGCGTGACACTGT] yielded a fraction ligated of 0.143. In the case of GAGACCGCAACTGAAAAGTTGTTATCACTGTCGTAAGACATTTGGATGGGTTGAAGTTCTGCACGTAGAAGCAAAAGGC [ACTGTCGTGACATGAT], the fraction ligated is reported as 0.846. Variant GAGACCGCAACTGAAAAGTTGTTATCATTGTCGTAAGAACTTTGGATGGGTTGAAGTTCTGCACGTAGAAGCAAAAGGC [ATTGTCGTGAACTGAT] has a fraction ligated of 0.838. Variant GAGACCGCAACTGAAAAGTTGTTATCACTGTCGTAAGACACTTTGGTGGGTTGAAGTTCTGCACGTAGAAGCAAAAGGC [ACTGTCGTGACACTGT] has a fraction ligated of 0.694. With GAGACCGCAACTGAAAAGTTGTTATCACTGTCGTAAGACACTTTGGAGGGTTGAAGTTCTGCACGTAGAAGCAAAAGGC [ACTGTCGTGACACTGA] the fraction ligated was 0.13. GAGACCGCAACTGAAAAGTTGTTATCACTTGTCTAAGCACTTTGGATGGGTTGAAGTTCTGCACGTAGAAGCAAAAGGC [ACTTGTCTGCACTGAT] gave a fraction ligated of 0.797. Work on GAGACCGCAACTGAAAAGTTGTTATCACTTGTCTAAGACACTTTGGAGGGTTGAAGTTCTGCACGTAGAAGCAAAAGGC [ACTTGTCTGACACTGA] yielded a fraction ligated of 0.169. GAGACCGCAACTGAAAAGTTGTTATCACTTGTCTAAGACACTTTGGTGGGTTGAAGTTCTGCACGTAGAAGCAAAAGGC [ACTTGTCTGACACTGT] was tested, and the fraction ligated was 0.285. Variant GAGACCGCAACTGAAAAGTTGTTATCACTTGTGTAAGACACTTGGATGGGTTGAAGTTCTGCACGTAGAAGCAAAAGGC [ACTTGTGTGACACGAT] has a fraction ligated of 0.807. For GAGACCGCAACTGAAAAGTTGTTATCACTTGCGTAAGACATTTGGATGGGTTGAAGTTCTGCACGTAGAAGCAAAAGGC [ACTTGCGTGACATGAT], the fraction ligated was 0.847. With GAGACCGCAACTGAAAAGTTGTTATCACTGTCGTAAACACTTTGGATGGGTTGAAGTTCTGCACGTAGAAGCAAAAGGC [ACTGTCGTACACTGAT] the fraction ligated was 0.84. GAGACCGCAACTGAAAAGTTGTTATCACTGTCGTAAGACCTTTGGATGGGTTGAAGTTCTGCACGTAGAAGCAAAAGGC [ACTGTCGTGACCTGAT] showed a fraction ligated of 0.849. Variant GAGACCGCAACTGAAAAGTTGTTATCACTTTCGTAAGCACTTTGGATGGGTTGAAGTTCTGCACGTAGAAGCAAAAGGC [ACTTTCGTGCACTGAT] has a fraction ligated of 0.8. GAGACCGCAACTGAAAAGTTGTTATCACTGTCGTAAGACACTTGGATGGGTTGAAGTTCTGCACGTAGAAGCAAAAGGC [ACTGTCGTGACACGAT] gave a fraction ligated of 0.812. GAGACCGCAACTGAAAAGTTGTTATCACTTGTCGAAGAACTTTGGATGGGTTGAAGTTCTGCACGTAGAAGCAAAAGGC [ACTTGTCGGAACTGAT] gave a fraction ligated of 0.813. GAGACCGCAACTGAAAAGTTGTTATCACTGTCGTAAGCACTTTGGATGGGTTGAAGTTCTGCACGTAGAAGCAAAAGGC [ACTGTCGTGCACTGAT] showed a fraction ligated of 0.833. For GAGACCGCAACTGAAAAGTTGTTATCACTTGTGTAAGACATTTGGATGGGTTGAAGTTCTGCACGTAGAAGCAAAAGGC [ACTTGTGTGACATGAT], the fraction ligated was 0.841. With GAGACCGCAACTGAAAAGTTGTTATCACTTGTCTAAGACCTTTGGATGGGTTGAAGTTCTGCACGTAGAAGCAAAAGGC [ACTTGTCTGACCTGAT] the fraction ligated was 0.783. With GAGACCGCAACTGAAAAGTTGTTATCACTTGCGTAAGACACTTGGATGGGTTGAAGTTCTGCACGTAGAAGCAAAAGGC [ACTTGCGTGACACGAT] the fraction ligated was 0.801.
